From the supplement of paper PMC7125110
± gives the standard error. For some of these results: Variants at the floor of the assay were thinned out.

B1: glmS ribozyme (parent)
chain: AUAAAAGCGCCAGAACUACAGAAAUGUAGUUGACGAGGAGGAGGUUUAUCGAAUUUUCGGCGGAUGCCUCCAAA

Tests used:
Settings in all cases: with glucosamine-6-phosphate
glucosamine-6-phosphate [1] = variants of: B1; test: kcat; higher = faster cleavage; RNA array
Summary of the method: (§1)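 Sequenced MiSeq chips were the platform: E. coli RNA polymerase transcribed barcoded ribozyme variants on them in situ, and a hybridised Cy3 probe tracked these at 37 °C. After glucosamine-6-phosphate (40 μM to 10 mM) in HEPES/KCl/Mg(OAc)2 buffer was flowed in, tiles were imaged over ~14 h. Signals normalised to baseline and to non-cleaving reference variants were reduced to per-tile medians and fit to one- or two-exponential decays to obtain kobs. kcat and KM were derived through weighted Michaelis–Menten fits across concentrations.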

glucosamine-6-phosphate [2] = variants of: B1; test: KM; higher = weaker cofactor use; RNA array
Summary of the method: as §1

glucosamine-6-phosphate [3] = variants of: B1; test: self-cleavage kobs at 40 uM GlcN6P; higher = faster cleavage; RNA array
Summary of the method: as §1

glucosamine-6-phosphate [4] = variants of: B1; test: self-cleavage kobs at 160 uM GlcN6P; higher = faster cleavage; RNA array
Summary of the method: as §1

glucosamine-6-phosphate [5] = variants of: B1; test: self-cleavage kobs at 640 uM GlcN6P; higher = faster cleavage; RNA array
Summary of the method: as §1

glucosamine-6-phosphate [6] = variants of: B1; test: self-cleavage kobs at 2500 uM GlcN6P; higher = faster cleavage; RNA array
Summary of the method: as §1

glucosamine-6-phosphate [7] = variants of: B1; test: self-cleavage kobs at 10000 uM GlcN6P; higher = faster cleavage; RNA array
Summary of the method: as §1

Row | Variant | kcat (glucosamine-6-phosphate [1]) [s⁻¹] | KM (glucosamine-6-phosphate [2]) [µM] | self-cleavage kobs at 40 uM GlcN6P (glucosamine-6-phosphate [3]) [s⁻¹] | self-cleavage kobs at 160 uM GlcN6P (glucosamine-6-phosphate [4]) [s⁻¹] | self-cleavage kobs at 640 uM GlcN6P (glucosamine-6-phosphate [5]) [s⁻¹] | self-cleavage kobs at 2500 uM GlcN6P (glucosamine-6-phosphate [6]) [s⁻¹] | self-cleavage kobs at 10000 uM GlcN6P (glucosamine-6-phosphate [7]) [s⁻¹]
1 | G40U A53U | 0.00278 ± 0.00064 | 1300 ± 390 | 0.000101 ± 8.3e-06 | 0.000254 ± 3.2e-05 | 0.000821 ± 9.1e-05 | 0.00203 ± 0.00093 | 0.00266 ± 0.00031
2 | A15C A52U | 0.000104 ± 4.8e-06 | 1830 ± 260 | – | – | – | 6.2e-05 ± 1.7e-05 | 8.65e-05 ± 1.9e-05
3 | G38A G59C | < 1e-05 | – | < 1e-05 | – | < 1e-05 | – | < 1e-05
4 | A12C G29A | 0.00648 ± 0.0024 | – | 0.000188 ± 3.3e-05 | 0.000322 ± 0.00011 | 0.00107 ± 0.00022 | 0.00331 ± 0.00067 | 0.00557 ± 0.00097
5 | C61A C68A | 1.17e-05 ± 1.8e-06 | – | – | – | – | – | –
6 | U46A A53G | 0.00162 ± 0.00057 | – | 8.49e-05 ± 1.5e-05 | 0.000201 ± 3.7e-05 | 0.000508 ± 8.1e-05 | 0.00104 ± 0.00016 | 0.00261 ± 0.00051
7 | C10U C67A | 1.13e-05 ± 2.7e-06 | – | – | – | – | – | –
8 | A14C G37C | < 1e-05 | – | < 1e-05 | – | < 1e-05 | – | < 1e-05
9 | G40U C67U | 7.51e-05 ± 5.3e-06 | 1470 ± 410 | < 1e-05 | – | 2.67e-05 ± 8.3e-06 | 4.31e-05 ± 8.2e-06 | 6.64e-05 ± 6e-06
10 | U56G C61A | < 1e-05 | – | – | – | – | – | –
11 | A15C G43A | < 1e-05 | – | < 1e-05 | < 1e-05 | < 1e-05 | – | –
12 | A15G U47G U55A | 0.0098 ± 0.003 | 1860 ± 850 | 0.000187 ± 5.9e-05 | – | 0.00364 ± 0.0011 | 0.00474 ± 0.0016 | 0.00887 ± 0.003
13 | G41C A53U | 0.000241 ± 3.2e-05 | 1290 ± 380 | – | – | 7.44e-05 ± 1.2e-05 | 0.000197 ± 3.2e-05 | 0.000201 ± 2.9e-05
14 | A42U U55G | 0.000182 ± 1.6e-05 | 577 ± 150 | – | 5.02e-05 ± 1.6e-05 | 8.8e-05 ± 1.4e-05 | 0.000164 ± 2.3e-05 | 0.000167 ± 2.3e-05
15 | U31A C68U | 0.00143 ± 0.00043 | 2740 ± 1200 | – | 6.73e-05 ± 1.4e-05 | 0.000477 ± 9.5e-05 | 0.000776 ± 0.00018 | 0.00105 ± 0.00019
16 | A33C C58G | 1.09e-05 ± 3.4e-06 | – | – | – | – | – | –
17 | C11U U65A C71U | 0.000194 ± 1.4e-05 | 3610 ± 470 | – | – | 2.73e-05 ± 1.3e-05 | 8.15e-05 ± 1.6e-05 | 0.000139 ± 4.3e-05
18 | G43A C70U | 6.4e-05 ± 1.2e-05 | – | – | – | – | 4.94e-05 ± 8.8e-06 | 5.31e-05 ± 8.3e-06

Row | Variant | kcat (glucosamine-6-phosphate [1]) [s⁻¹] | KM (glucosamine-6-phosphate [2]) [µM] | self-cleavage kobs at 40 uM GlcN6P (glucosamine-6-phosphate [3]) [s⁻¹] | self-cleavage kobs at 160 uM GlcN6P (glucosamine-6-phosphate [4]) [s⁻¹] | self-cleavage kobs at 640 uM GlcN6P (glucosamine-6-phosphate [5]) [s⁻¹] | self-cleavage kobs at 2500 uM GlcN6P (glucosamine-6-phosphate [6]) [s⁻¹] | self-cleavage kobs at 10000 uM GlcN6P (glucosamine-6-phosphate [7]) [s⁻¹]
19 | C8A C70U | < 1e-05 | – | – | < 1e-05 | – | – | –
20 | U30A G59A | 3.04e-05 ± 2.1e-06 | 2080 ± 490 | < 1e-05 | – | – | – | 2.5e-05 ± 1.2e-05
21 | A42U U56A | 0.000109 ± 7.4e-06 | 3230 ± 710 | – | – | – | 4.97e-05 ± 1.4e-05 | 8.21e-05 ± 9.2e-06
22 | G44U U45G | 0.0224 ± 0.0018 | 3420 ± 360 | 0.000269 ± 4.1e-05 | 0.00106 ± 0.00018 | 0.0033 ± 0.00046 | 0.00801 ± 0.0035 | 0.017 ± 0.0022
23 | G63U C68G | 1.09e-05 ± 2.8e-06 | – | < 1e-05 | – | – | < 1e-05 | –
24 | G60U G66C | < 1e-05 | – | – | – | – | – | < 1e-05
25 | U54G C61G | 1.78e-05 ± 5.8e-06 | – | < 1e-05 | – | – | – | –
26 | G26U A48C | 0.000587 ± 6e-05 | 4480 ± 710 | – | – | 7.06e-05 ± 1.4e-05 | 0.000222 ± 3.5e-05 | 0.000394 ± 7.4e-05
27 | C10G G37U | < 1e-05 | – | – | – | – | – | –
28 | U47A C50A | 4.12e-05 ± 2e-06 | 5840 ± 720 | – | – | – | – | 2.6e-05 ± 9.8e-06
29 | U30C U69C | 0.00014 ± 1.4e-05 | 591 ± 210 | – | 3.85e-05 ± 1.7e-05 | 6.58e-05 ± 1e-05 | 0.000129 ± 1.3e-05 | 0.000122 ± 1.4e-05
30 | A42G C70G | 0.000261 ± 5.1e-05 | 261 ± 120 | 4.1e-05 ± 7.7e-06 | 8.07e-05 ± 1.4e-05 | 0.000216 ± 2.7e-05 | 0.000414 ± 6.1e-05 | 0.000223 ± 2.5e-05
31 | G37C A53C | 1.74e-05 ± 7.2e-06 | – | – | – | – | – | –
32 | G40C U46G | 0.000983 ± 6.7e-05 | 2350 ± 280 | – | 7.1e-05 ± 3.3e-05 | 0.00021 ± 4.6e-05 | 0.000525 ± 0.00016 | 0.000789 ± 0.00015
33 | A15G G29C U31C A39U | 0.000143 ± 2.1e-06 | 4650 ± 160 | – | – | – | 5.02e-05 ± 1.3e-05 | 9.79e-05 ± 1.4e-05
34 | C16G G66U | 0.000189 ± 5.3e-06 | 2380 ± 200 | – | – | 3.85e-05 ± 1.1e-05 | 9.99e-05 ± 1.6e-05 | 0.000152 ± 1.3e-05
35 | G40U U45G | 0.0012 ± 0.00018 | 724 ± 190 | 7.67e-05 ± 2e-05 | 0.000202 ± 3.6e-05 | 0.000582 ± 8.9e-05 | 0.000779 ± 0.00017 | 0.00134 ± 0.00027
